Measured values as given in publication PMC10509710, “Development and validation of a purification system for functional full-length human SR-B1 and CD36” (The Journal of Biological Chemistry, 2023).

Target: oxidized low-density lipoprotein (oxLDL) (oxidized with CuSO4 (residues not told))
Experiment: MST; Cy5-labeled receptor (RED-NHS, lysines) at constant 20 nM, ligand in a 16-point 1:1 dilution series; exchange buffer (50 mM Hepes pH 7.5, 150 mM NaCl, 0.025% LMNG, 0.005% CHS); 25 °C, 40% MST power; apparent Kd, one-site specific binding; molar values from average molecular weights (267.5 kDa HDL, 3500 kDa oxLDL)
Conditions: both partners purified

B1: human full-length cluster of differentiation 36 (CD36), glycosylated (receptor, UniProt P16671 1-472, looked up)
chain: MGCDRNCGLIAGAVIGAVLAVFGGILMPVGDLLIQKTIKKQVVLEEGTIAFKNWVKTGTEVYRQFWIFDVQNPQEVMMNSSNIQVKQRGPYTYRVRFLAKENVTQDAEDNTVSFLQPNGAIFEPSLSVGTEADNFTVLNLAVAAASHIYQNQFVQMILNSLINKSKSSMFQVRTLRELLWGYRDPFLSLVPYPVTTTVGLFYPYNNTADGVYKVFNGKDNISKVAIIDTYKGKRNLSYWESHCDMINGTDAASFPPFVEKSQVLQFFSSDICRSIYAVFESDVNLKGIPVYRFVLPSKAFASPVENPDNYCFCTEKIISKNCTSYGVLDISKCKEGRPVYISLPHFLYASPDVSEPIDGLNPNEEEHRTYLDIEPITGFTLQFAKRLQVNLLVKPSEKIQVLKNLKRNYIVPILWLNETGTIGDEKANMFRSQVTGKINLLGLIEMILLSVGVVMFVAFMISYCACRSKTIK
modifications: glycosylated (Sf9); labeled with Cy5 via lysine residues in the MST
notes: CD36, human, full length, 472 amino acids as printed; the methods print a C-terminal hemaglutinin A secretion signal and an N-terminal PreScission cut site, His10 and FLAG; In detergent micelles when purified; also called glycosylated CD36; source: Sf9 cells, baculovirus (MOI 5): on cells and in lysate; also purified (LMNG/CHS solubilisation, TALON cobalt resin, desalting)
B1 was tested, and the Kd was 343 ± 286 nM.
